Measured values: patent publication US20250154277A1 (CONCEPT TO MEDICINE BIOTECH, published 2025)
Values joined by “and” are separate entries in the source; they are usually repeats but may differ in a detail not shown here. Identical values can stand only once. Like-named read-outs stand apart in the source and are kept apart here.

T1: human 5T4-His protein (human, UniProt Q13641 32-355)
T1 construct: also called recombinant 5T4 protein (human 5T4-his tag); human 5T4 protein; not shown: His tag
T1 sequence (looked up): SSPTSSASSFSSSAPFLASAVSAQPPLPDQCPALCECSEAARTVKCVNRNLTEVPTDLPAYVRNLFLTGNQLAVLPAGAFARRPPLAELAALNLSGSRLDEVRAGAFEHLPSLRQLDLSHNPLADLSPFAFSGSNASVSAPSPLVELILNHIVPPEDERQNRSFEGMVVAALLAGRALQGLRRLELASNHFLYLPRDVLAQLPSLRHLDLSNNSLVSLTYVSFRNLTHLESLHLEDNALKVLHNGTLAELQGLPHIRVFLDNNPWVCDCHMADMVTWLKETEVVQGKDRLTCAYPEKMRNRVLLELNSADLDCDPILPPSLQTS

T2: cynomolgus 5T4 protein (cynomolgus monkey, UniProt Q4R8Y9 35-355, limits assumed)
T2 construct: Coated protein in ELISA; the screening step names a cyno 5T4-His protein; also called cyno 5T4; recombinant cyno 5T4-His protein
T2 sequence (looked up): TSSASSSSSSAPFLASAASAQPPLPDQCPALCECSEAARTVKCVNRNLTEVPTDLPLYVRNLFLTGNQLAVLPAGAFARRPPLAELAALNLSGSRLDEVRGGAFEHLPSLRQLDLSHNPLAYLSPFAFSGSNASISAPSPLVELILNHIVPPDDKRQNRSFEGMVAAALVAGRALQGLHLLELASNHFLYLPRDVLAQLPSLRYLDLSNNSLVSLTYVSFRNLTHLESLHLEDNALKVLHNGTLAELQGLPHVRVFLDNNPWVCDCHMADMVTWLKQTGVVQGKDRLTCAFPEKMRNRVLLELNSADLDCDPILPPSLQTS

T3: human 5T4 expressed on cells (human, UniProt Q13641 32-420)
T3 construct: whole, on cells; also called CHOK1-hu5T4; CHO-K1-expressing human 5T4
T3 sequence (looked up): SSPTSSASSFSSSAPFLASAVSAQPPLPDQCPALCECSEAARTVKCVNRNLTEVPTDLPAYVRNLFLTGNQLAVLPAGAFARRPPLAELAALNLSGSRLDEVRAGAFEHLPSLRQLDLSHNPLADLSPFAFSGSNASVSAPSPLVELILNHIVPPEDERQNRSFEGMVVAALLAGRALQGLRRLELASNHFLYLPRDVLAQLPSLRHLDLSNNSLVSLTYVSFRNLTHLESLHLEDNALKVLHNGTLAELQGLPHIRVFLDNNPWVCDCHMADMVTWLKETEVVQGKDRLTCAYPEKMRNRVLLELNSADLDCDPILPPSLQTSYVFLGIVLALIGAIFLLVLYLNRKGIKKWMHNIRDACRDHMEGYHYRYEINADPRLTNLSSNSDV

B1: Hu286B4-10 (antibody, V domains shown)
VH: EVQLQESGPGLVKPSDTLSLTCAVSGYSISNNYYWNWIRQPPGKGLEWIGYITYDGSNNYNPSLKNRITMSRDTSKNQFSLKLSSVTAVDTAVYYCARGGGQLRFDYWGQGTTVTVSS
VL: SIVMTQSPSSLSASVGDRVTITCKASQSVSNEVTWYQQKPGKSPKMLIYYASNRYTGVPDRFSGSGYGTDFTFTISSLQPEDIATYFCQQDYSSPWTFGGGTKVEIK
notes: humanized
B2: 24F10 chimeric antibody (antibody, V domains shown)
VH: EVQLVESGGGLVKPGGSLKLSCAASGFTFSDYGMHWVRQAPEKGLEWVAYISSGTSTIYYTDTVKGRFTISRDNAKNTLFLQMTSLRSEDTAMYYCARGGDGYYRSTMDYWGQGISVTVSS
VL: DIVLTQSPASLAVSLGQRATISCRASQSVSSSSYSYMHWYQQKPGQPPKLLIKSASNLASGVPARFSGSGSGTDFTLNIHPVEEEDSATYYCQHSWEVPRTFGGGTKLEIK
notes: chimeric mAb
B3: 393E9 chimeric antibody (antibody, V domains shown)
VH: EVKLVESGGGLVQPGGSLSLSCAASGFTFTDYYMSWVRQPPGKALEWLGFIRNKGNGYTTENSASVKGRFTISRDNSQSILYLQMNALRAEDSATYYCARYRGNPHYAMDYWGQGTSVTVSS
VL: DIVLTQFPASLAVSLGQRATISCRASESVEFYGTSFLQWYQQKPGQPPKLLIYGASNVESGVPARFSGSGSGTDFSLSIHPVEEDDIAMYFCQQSRKVPSTFGGGTKLEIK
notes: chimeric mAb
B4: 14G12 chimeric antibody (antibody, V domains shown)
VH: EVQLQQSGPELVKPGASVKISCKASGYAFSSSWMNWVKQRPGKGLEWIGRIYREDGHTNYNGKFKGKATLTADKSSTTAYMQLTSLTSEDSAVYFCANGGAMDYWGQGTSVTVSS
VL: DIQMTQSTSSLSASLGDRVTISCRASQDISNYLNWYQQKPDGTVKLLIYYTSRLHSGVPSRFSGSGSGTDYSLTISNLEQEDIATYFCQQDNTLPWTFGGGTKLEIK
notes: chimeric mAb
B5: 257F1 chimeric antibody (antibody, V domains shown)
VH: QVLLQQSGAEVARPGASVKLSCKASGYTFTSYGLNWLRQRTGQGLEWIGEIYPRSENTHYNEKFKGKATLTADKSSSTAYMELRSLTSEDSAVYFCARGDWDFDHWGQGTTLTVSS
VL: EILLTQSPAIIPASPGEKVTITCSASSSVSYMNWYQQKPGSSPKIWIYGISNLASGVPARFSGSGSGTFFSFTINSMEAEDVATYYCQQRSSYPRTFGGGTKLEIK
notes: chimeric mAb

Tests used:
human 5T4-His protein [1] = biological target: T1, human 5T4-His protein; assay: SPR Biacore, Protein A capture
Protocol: The binding of the 286B4 humanized antibodies to recombinant 5T4 protein (human 5T4-his tag) was tested with Biacore using a capture method. The mAbs were captured using Protein A chip. A serial dilution of human 5T4-his tag protein was injected over captured antibody for 3 mins at a flow rate of 30 μl/min. The antigen was allowed to dissociate for 280-800 s. All the experiments were carried out on a Biacore T200. Data analysis was carried out using the Biacore T200 evaluation software.

human 5T4-His protein [2] = biological target: T1, human 5T4-His protein; assay: ELISA, coated human 5T4
Protocol: To evaluate the binding activity of clones, the 286B4 chimeric antibody along with 286B4 humanized mAbs were subjected to ELISA test.
Briefly, microtiter plates were coated with human 5T4-His protein at 1 μg/ml in PBS, 100 μl/well at 4° C. overnight, then blocked with 150 μl/well of 1% BSA. 4-fold dilutions of tested antibodies starting from 20 nM were added to each well and incubated for 1 hour at 37° C. The plates were washed with PBS/Tween and then incubated with Goat Anti-Human IgG-HRP for 30 mins at 37° C. After washing, the plates were developed with TMB substrate and analyzed by spectrophotometer at OD 450 nm. As shown in FIG. 16 and Table 15, most of the humanized clones bound to human 5T4 with high potency.

human 5T4-His protein [3] = biological target: T1, human 5T4-His protein; assay: ELISA, coated 5T4-His
How it was run: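 Plates coated overnight at 4° C with 1 μg/ml 5T4-His, blocked with 1% BSA. Antibodies in 4-fold dilutions from 20 nM, 1 h at 37° C; bound antibody detected with anti-human IgG-HRP (30 min, 37° C), TMB development, OD 450 nm.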

human 5T4-His protein [4] = biological target: T1, human 5T4-His protein; assay: SPR Biacore, Protein A capture; remark: listed apart in the source
How it was run: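 Antibodies captured on a Protein A chip on Biacore T200; serial dilutions of His-tagged human 5T4 injected 2-3 min at 30 μl/min, dissociation 360-1000 s.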

human 5T4-His protein [5] = biological target: T1, human 5T4-His protein; assay: competitive ELISA, coated human 5T4, vs 159D5-biotin
human 5T4-His protein [6] = biological target: T1, human 5T4-His protein; assay: ELISA, coated antigen
cynomolgus 5T4 protein = biological target: T2, cynomolgus 5T4 protein; assay: ELISA, coated antigen
[7] = biological target: T3, human 5T4 expressed on cells; assay: flow cytometry, CHOK1-hu5T4 cells
human 5T4-His protein [8] = biological target: T1, human 5T4-His protein; assay: SPR Biacore, Protein A capture; remark: listed apart in the source
Protocol: The binding of the 393E9 humanized antibodies to recombinant 5T4 protein (human 5T4-his tag) was tested with Biacore using a capture method. The mAbs were captured using Protein A chip. A serial dilution of human 5T4-his tag protein was injected over captured antibody for 3 mins at a flow rate of 30 μl/min. The antigen was allowed to dissociate for 280-800 s. All the experiments were carried out on a Biacore T200. Data analysis was carried out using the Biacore T200 evaluation software.

human 5T4-His protein [9] = biological target: T1, human 5T4-His protein; assay: competitive ELISA, coated human 5T4, vs naptumomab-biotin
human 5T4-His protein [10] = biological target: T1, human 5T4-His protein; assay: ELISA, coated 5T4-His; remark: listed apart in the source
Protocol: To evaluate the binding activity of 393E9 humanized antibodies to human 5T4, the 393E9 chimeric antibody (393E9-C) along with 393E9 humanized mAbs were subjected to ELISA test.
Briefly, microtiter plates were coated with human 5T4-His protein at 1 μg/ml in PBS, 100 μl/well at 4° C. overnight, then blocked with 150 μl/well of 1% BSA. 4-fold dilutions of antibodies starting from 20 nM were added to each well and incubated for 1 hour at 37° C. The plates were washed with PBS/Tween and then incubated with Goat Anti-Human IgG-HRP for 30 mins at 37° C. After washing, the plates were developed with TMB substrate and analyzed by spectrophotometer at OD 450 nm. As shown in FIG. 12 and Table 9, most of the humanized antibodies bound to human 5T4 with high activity.

human 5T4-His protein [11] = biological target: T1, human 5T4-His protein; assay: SPR Biacore, Protein A capture; remark: listed apart in the source
How it was run: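 Humanized 14G12 antibodies captured on a Protein A chip; serial dilutions of human 5T4-His injected for 120 s-180 s at 30 μl/min, with dissociation over 360 s-1000 s on a Biacore T200.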

human 5T4-His protein [12] = biological target: T1, human 5T4-His protein; assay: competitive ELISA, coated human 5T4, vs naptumomab-biotin; remark: listed apart in the source
human 5T4-His protein [13] = biological target: T1, human 5T4-His protein; assay: competitive ELISA, coated human 5T4, vs 257F1-biotin
human 5T4-His protein [14] = biological target: T1, human 5T4-His protein; assay: as above; remark: listed apart in the source
Protocol: Competitive ELISA was carried out to classify the test 5T4 mAbs based on the binding epitope to human 5T4.
Briefly, microtiter plates were coated with human 5T4 proteins at 0.5 μg/ml in PBS, 100 μl/well at 4° C. overnight, then blocked with 150 μl/well of 1% BSA. Serial dilutions of chimeric antibodies as well as 0.2 ug/ml biotin-conjugated reference mAb were added to each well and incubated for 1 hour at RT. The plates were washed with PBS/Tween and then incubate with streptavidin-HRP for 15 mins at RT. After washing, the plates were developed with TMB substrate and analyzed by spectrophotometer at OD 450 nm. According to the competition performance with reference mAbs, the 5T4 mAbs were divided into four bins (Bin A-D), as shown in FIG. 3-8 and Table 4.

human 5T4-His protein [15] = biological target: T1, human 5T4-His protein; assay: as above; remark: listed apart in the source

| Binder | Kd (human 5T4-His protein [4]) [pM] | koff (human 5T4-His protein [4]) [s⁻¹] | kon (human 5T4-His protein [4]) [M⁻¹ s⁻¹] | EC50 (human 5T4-His protein [6]) [pM] | EC50 (cynomolgus 5T4 protein) [pM] | also measured |
| --- | --- | --- | --- | --- | --- | --- |
| B1 | – | – | – | – | – | Kd (human 5T4-His protein [1]): 1930 pM; koff (human 5T4-His protein [1]): 0.000204 s⁻¹; kon (human 5T4-His protein [1]): 106000 M⁻¹ s⁻¹; EC50 (read off the curve) (human 5T4-His protein [2]): ~80 pM; EC50 (human 5T4-His protein [3]): 2610 pM |
| B2 | 302 | 0.000126 | 418000 | 180 | 210 | IC50 (read off the curve) (human 5T4-His protein [5]): ~9000 pM |
| B3 | 56.5 | 0.000183 | 3.24e+06 | 370 | 140 | EC50 (read off the curve) [7]: 5000 pM; Kd (human 5T4-His protein [8]): 463 pM; koff (human 5T4-His protein [8]): 0.000107 s⁻¹; kon (human 5T4-His protein [8]): 231000 M⁻¹ s⁻¹; IC50 (read off the curve) (human 5T4-His protein [9]): ~5000 pM; EC50 (human 5T4-His protein [10]): 270 pM and 130 pM and 230 pM |
| B4 | 413 | 0.000222 | 538000 | 190 | 170 | Kd (human 5T4-His protein [11]): 839 pM and 537 pM; koff (human 5T4-His protein [11]): 0.000336 s⁻¹ and 0.00033 s⁻¹; kon (human 5T4-His protein [11]): 401000 M⁻¹ s⁻¹ and 615000 M⁻¹ s⁻¹; IC50 (read off the curve) (human 5T4-His protein [12]): ~4000 pM |
| B5 | 1480 | 0.000275 | 186000 | 560 | 110 | IC50 (read off the curve) (human 5T4-His protein [13]): ~8000 pM; IC50 (read off the curve) (human 5T4-His protein [14]): ~10000 pM; IC50 (read off the curve) (human 5T4-His protein [15]): ~7000 pM |
